Measured values taken from patent publication US20220153839A1 (NBE THERAPEUTICS, published 2022).

B1: ERR1-TOP4 chimeric rabbit/human Fab (Fab, V domains shown)
VH: QSVEESGGRLVTPGTPLTLTCTASGIDLSRYAVNWVRQAPGKGLEWIGVISGSGTTYYASWAKGRFTISKTSTTVDLKITSPTTEDTATYFCARGWATDGIFDYDDTFNLWGPGTLVTVSS
VL: SYELTQLPSVSVSLGQTARITCGGDSIESKAVHWYQQKPGLAPGLLVYNDDERPSGVPDRFSGSNSGDTATLTISGAQAGDEADYYCQLWDGSAYVFGGGTQLTVTG
notes: Chimeric rabbit/human Fab with His tag, expressed in E. coli (pET11a); lambda light chain
B2: ERR1-409 chimeric rabbit/human Fab (Fab, V domains shown)
VH: QEQLVESGGRLVTPGGSLTLTCTASGFSLSSYYMGWVRQAPGKGLEWIGTIYGGSGSTWYASWVKGRFTISKTSTAVDLKITSLTTEDTATYFCARSYPGWTTEPYFDIWGPGTLVTVSS
VL: QFVLTQPQSVSGSLGQTVSISCNRDSGNIEDYYVHWYQQHPGKAPTTVIYNDDQRPSGVPDRFSGSIDSTSNSASLTITGLLAEDEADYYCLSSDSSAYVFGGGTQLTVTG
notes: as for B1
B3: ERR1-301 chimeric rabbit/human Fab (Fab, V domains shown)
VH: QEQLEESGGGLVTPGGSLTLTCTASGFTISTYHMSWVRQAPGKGLEWIGSIYAGSGSTYYASWVNGRFTISSNTTQNTVSLQMNSLTVADTATYFCARDHPSYGMDLWGPGTLVTVSS
VL: SYELTQLPSVSVSLGQTARITCGGNSIGSKAVNWYQQKPGLAPGLLIYDDDERPSGVPDRFSASNSGDTATLTISGAQAEDEADYYCQLWDSSAVAYVFGGGTQLTVTG
notes: as for B1
B4: ERR1-316 chimeric rabbit/human Fab (Fab, V domains shown)
VH: QEQLEESGGRLVTPGTPLTLTCTASGFFLSSYYVSWVRQAPGKGLEWIGAIGTGGSAYYASWAKSRSTITRNTNLSTVTLKMTSLTAADTATYFCARDHPNYGMDLWGPGTLVTVSS
VL: SYELTQLPSVSVSLGQTARITCGGNSIGSKAVNWYQQKPGLAPGLLIYDDDERPSGVPDRFSGSNSGDTATLTISGAQAGDEADYYCQLWDSSTGAYAFGGGTQLTVTG
notes: as for B1
B5: ERR1-403 chimeric rabbit/human Fab (Fab, V domains shown)
VH: QEQLKESGRGLVQPGGSLKLSCKASGFDFSGWYMTWVRQAPGKGLEWIGTIGTTKGRTYYASWVNGRFTISSNAQNTVDLQMNSLTAADRATYFCVRGSDYFDLWGPGTLVTISS
VL: SYELTQLPSVSVSLGQTARITCGGNSIGSKAVNWYQQKPGLAPGLLIYDDDERPSGVPARFSGSNSGDTATLTISGAQAGDEADYYCQLWDSSAGAYVFGGGTQLTVTG
notes: as for B1

Legend:
[1] = biological target: T1, hFc-mROR1 (extracellular domain of mouse ROR1 fused to the Fc domain of human IgG1) (human; mouse, UniProt Q9Z139 30-406); test: ELISA; hFc fusion captured by coated anti-human IgG1 Fc; anti-His-HRP; A405
T1 construct: extracellular domain; not shown: Fc domain of human IgG1
Method: (§1) The binding of each chimeric rabbit/human Fab to hROR1 and mROR1 fused with human IgG1 Fc (hFc-hROR1 and hFc-mROR1) was analyzed by ELISA. hFc-ROR1 or hFc-mROR1 were captured by anti-human IgG1 Fc antibody immobilized on plate and then incubated with hROR1 specific Fabs comprising a His-tag via detection with mouse anti-His tag.
(§2) ELISA: For ELISA (FIG. 2), each well of a 96-well Costar 3690 plate (Corning, Corning, N.Y.) was coated with 100 ng anti-human IgG1 Fc in 25 μL coating buffer (0.1 M Na₂CO₃, 0.1 M NaHCO₃, pH 9.6) for 1 h at 37° C. After blocking with 150 μL 3% (w/v) BSA/TBS for 1 h at 37° C., hFc-hROR1 or hFc-mROR1 was captured following incubation at 100 ng/50 μL for 1 h at 37° C. Then 100 ng/50 μL of Fab was applied in each well at 37° C. 2 h later, 50 μL of a 1:1000 dilution of a mouse anti-His tag mAb conjugated to horse radish peroxidase (HRP) (R&D Systems, Minneapolis, Minn.) in 1% (w/v) BSA/TBS was used to detect the Fab. To determine the epitopes (FIG. 4), hFc fusion proteins containing different domains of hROR1 were coated directly, followed by incubation with Fab before detection by mouse anti-His tag mAb conjugated to HRP. Washing with PBS was repeated and colorimetric detection was performed using 2,2′-azino-bis(3-ethylbenzthiazoline)-6-sulfonic acid (Roche) as substrate according to the manufacturer's directions. The absorbance was measured at 405 nm using a SpectraMax M5 microplate reader (Molecular Devices; Sunnyvale, Calif.) and SoftMax Pro software (Molecular Devices).

[2] = biological target: T2, hFc-hROR1 (extracellular domain of human ROR1 fused to the Fc domain of human IgG1) (human, UniProt Q01973 30-406); test: SPR (Biacore X100); hFc-hROR1 captured by anti-human Fcγ antibody on CM5; Fab as analyte; 1:1 Langmuir fit
T2 construct: extracellular domain; also called hFc-ROR1; not shown: Fc domain of human IgG1
Method: (A) Shown are Biacore X100 sensorgrams obtained for the binding of each Fab to hFc-hROR1 captured by anti-human Fcγ antibody immobilized on CM5 chip after instantaneous background depletion. Fabs were injected at five different concentrations with the highest concentration indicated in table (B), one of the five concentrations was tested in duplicates. The equilibrium dissociation constant (Kd) was calculated from koff/kₒₙ (kₒₙ, association rate constant; koff, dissociation rate constant).
Surface plasmon resonance: Surface plasmon resonance for the measurement of the affinities of all Fabs to hFc-hROR1 and for epitope mapping studies were performed on a Biacore X100 instrument using Biacore reagents and software (GE Healthcare, Piscataway, N.J.). Anti-Human IgG (Fc) antibody was immobilized on a CM5 sensor chip following the instruction of Human Antibody Capture Kit (GE Healthcare, Piscataway, N.J.). The sensor chip included an empty flow cell for instantaneous background depletion. All binding assays used 1×HBS-EP+ running buffer (10 mM HEPES, 150 mM NaCl, 3 mM EDTA (pH 7.4), and 0.05% (v/v) Surfactant P20) and a flow rate of […]. […] The sensor chip was regenerated with […] from the Human Antibody Capture Kit without any loss of binding capacity. Calculation of association (kₒₙ) and dissociation (koff) rate constants was based on a 1:1 Langmuir binding model. The equilibrium dissociation constant (Kd) was calculated from koff/kₒₙ. For epitope mapping studies, each Fab was prepared at 500 nM alone in 1×HBS-EP+ running buffer and then injected in order as indicated in FIG. 5.

hROR2 = biological target: T3, hROR2 (human, UniProt Q01974); test: flow cytometry on 63-12 / hROR2 cells; anti-His Alexa Fluor 488
T3 construct: full length, on the cell surface; also called 63-12 / hROR2; ROR2 on T47D cells
Method: Flow cytometry: Cells were stained using standard flow cytometry methodology. Briefly, for purified anti-ROR1 Fab (FIG. 3), 0.1-1×10⁶ cells were stained with 1000 ng/100 μL of Fab on ice for 1 h. After washing twice with ice-cold flow cytometry buffer (PBS containing 1% (v/v) BSA, 0.1% sodium azide and 1 mM EDTA), the cells were incubated with a 1:1000 dilution of a mouse anti-His tag mAb conjugated to Alexa Fluor 488 (Qiagen) in 100 μL flow cytometry buffer on ice for 30 min. For purified anti-ROR1 IgG1 (FIG. 8), 0.1-1×10⁶ cells were blocked by 4% goat serum for 15 min at room temperature and then incubated with 100 ng/100 μL of IgG on ice for 1 h. After washing twice with ice-cold flow cytometry buffer, cells were stained with a 1:500 dilution of goat anti-human IgG, Fcγ pAbs conjugated to APC (Jackson ImmunoResearch) in 100 μL flow cytometry buffer on ice for 30 min. For commercial goat anti human ROR1 polyclonal antibody (FIG. 8), 0.1-1×10⁶ cells were stained with 200 ng/100 μL of Ab on ice for 1 h. […] Finally, 4′,6-diamidino-2-phenylindole (DAPI) was added to a final concentration of 100 ng/mL to exclude dead cells from the analysis. Cells were analyzed using a FACSCalibur instrument (BD Biosciences) and FlowJo analytical software (Tree Star, Ashland, Oreg.).

[3] = biological target: T4, hFc-hROR2 (extracellular domain of human ROR2 fused to the Fc domain of human IgG1) (human, UniProt Q01974 34-403); test: ELISA as for hFc-hROR1; third bar series, keyed 'hFc-hROR1' a second time on the sheet, taken as hFc-hROR2 by legend paragraph 27
T4 construct: extracellular domain; not shown: Fc domain of human IgG1
Method: as §1, §2

Ig = biological target: T5, Ig (human, UniProt Q01973); test: ELISA on directly coated hFc fusion proteins of hROR1 domains; anti-His-HRP; A405
T5 construct: Ig domain of the extracellular domain; also called hFc-hROR1-Ig
Method: as §2

Fr + Ki = biological target: T6, Fr + Ki (human, UniProt Q01973); test: as above
T6 construct: Frizzled and Kringle domains of the extracellular domain; also called hFc-hROR1-Fr-Ki
Method: as §2

Kr = biological target: T7, Kr (human, UniProt Q01973); test: as above
T7 construct: Kringle domain of the extracellular domain; also called hFc-hROR1-Kr
Method: as §2

Fr = biological target: T8, Fr; test: as above
T8 construct: also called hFc-hROR1-Fr
Method: as §2

T7 sequence (Q01973 312-391 limits assumed): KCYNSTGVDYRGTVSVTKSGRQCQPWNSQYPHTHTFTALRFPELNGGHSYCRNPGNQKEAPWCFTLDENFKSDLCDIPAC
T5 sequence (Q01973 42-147 limits assumed): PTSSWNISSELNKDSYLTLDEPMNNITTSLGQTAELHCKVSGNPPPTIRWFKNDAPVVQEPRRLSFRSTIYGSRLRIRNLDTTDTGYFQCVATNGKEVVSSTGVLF
T1 sequence (Q9Z139 30-406): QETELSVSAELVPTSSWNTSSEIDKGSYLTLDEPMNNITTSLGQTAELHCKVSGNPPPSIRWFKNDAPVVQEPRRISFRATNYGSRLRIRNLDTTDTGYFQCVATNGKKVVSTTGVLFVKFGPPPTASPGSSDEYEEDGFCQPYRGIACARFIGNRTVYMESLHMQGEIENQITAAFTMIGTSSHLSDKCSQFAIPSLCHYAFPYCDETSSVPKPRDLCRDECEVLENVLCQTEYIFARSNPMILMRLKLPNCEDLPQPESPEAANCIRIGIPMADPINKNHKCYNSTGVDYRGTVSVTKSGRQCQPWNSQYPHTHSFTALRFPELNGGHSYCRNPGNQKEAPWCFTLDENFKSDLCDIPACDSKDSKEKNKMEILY
T8 sequence (chain, as listed by the source limits assumed): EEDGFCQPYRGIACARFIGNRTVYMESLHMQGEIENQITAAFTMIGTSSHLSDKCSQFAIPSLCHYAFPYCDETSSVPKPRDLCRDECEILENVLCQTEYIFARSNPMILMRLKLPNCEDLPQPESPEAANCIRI
T2 sequence (Q01973 30-406): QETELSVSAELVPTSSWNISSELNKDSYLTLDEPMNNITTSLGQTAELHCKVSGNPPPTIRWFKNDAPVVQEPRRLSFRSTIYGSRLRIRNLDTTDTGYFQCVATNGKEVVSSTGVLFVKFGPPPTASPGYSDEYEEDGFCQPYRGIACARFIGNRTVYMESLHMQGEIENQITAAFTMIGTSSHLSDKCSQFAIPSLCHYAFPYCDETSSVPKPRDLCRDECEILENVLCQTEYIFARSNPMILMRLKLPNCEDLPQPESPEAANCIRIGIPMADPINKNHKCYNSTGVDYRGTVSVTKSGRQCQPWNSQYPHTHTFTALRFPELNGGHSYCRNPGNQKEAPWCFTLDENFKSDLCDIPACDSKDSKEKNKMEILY
T4 sequence (Q01974 34-403): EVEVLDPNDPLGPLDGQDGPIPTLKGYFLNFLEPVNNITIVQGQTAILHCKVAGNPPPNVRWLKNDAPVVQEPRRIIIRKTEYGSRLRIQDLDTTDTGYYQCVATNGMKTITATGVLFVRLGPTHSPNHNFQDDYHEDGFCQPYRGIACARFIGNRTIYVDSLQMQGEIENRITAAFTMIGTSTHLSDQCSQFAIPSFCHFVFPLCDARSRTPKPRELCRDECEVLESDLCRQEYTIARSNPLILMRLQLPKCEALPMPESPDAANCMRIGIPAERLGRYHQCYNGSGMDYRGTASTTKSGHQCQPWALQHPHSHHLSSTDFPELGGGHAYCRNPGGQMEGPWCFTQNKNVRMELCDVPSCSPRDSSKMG
T3 sequence (Q01974 34-943 limits assumed): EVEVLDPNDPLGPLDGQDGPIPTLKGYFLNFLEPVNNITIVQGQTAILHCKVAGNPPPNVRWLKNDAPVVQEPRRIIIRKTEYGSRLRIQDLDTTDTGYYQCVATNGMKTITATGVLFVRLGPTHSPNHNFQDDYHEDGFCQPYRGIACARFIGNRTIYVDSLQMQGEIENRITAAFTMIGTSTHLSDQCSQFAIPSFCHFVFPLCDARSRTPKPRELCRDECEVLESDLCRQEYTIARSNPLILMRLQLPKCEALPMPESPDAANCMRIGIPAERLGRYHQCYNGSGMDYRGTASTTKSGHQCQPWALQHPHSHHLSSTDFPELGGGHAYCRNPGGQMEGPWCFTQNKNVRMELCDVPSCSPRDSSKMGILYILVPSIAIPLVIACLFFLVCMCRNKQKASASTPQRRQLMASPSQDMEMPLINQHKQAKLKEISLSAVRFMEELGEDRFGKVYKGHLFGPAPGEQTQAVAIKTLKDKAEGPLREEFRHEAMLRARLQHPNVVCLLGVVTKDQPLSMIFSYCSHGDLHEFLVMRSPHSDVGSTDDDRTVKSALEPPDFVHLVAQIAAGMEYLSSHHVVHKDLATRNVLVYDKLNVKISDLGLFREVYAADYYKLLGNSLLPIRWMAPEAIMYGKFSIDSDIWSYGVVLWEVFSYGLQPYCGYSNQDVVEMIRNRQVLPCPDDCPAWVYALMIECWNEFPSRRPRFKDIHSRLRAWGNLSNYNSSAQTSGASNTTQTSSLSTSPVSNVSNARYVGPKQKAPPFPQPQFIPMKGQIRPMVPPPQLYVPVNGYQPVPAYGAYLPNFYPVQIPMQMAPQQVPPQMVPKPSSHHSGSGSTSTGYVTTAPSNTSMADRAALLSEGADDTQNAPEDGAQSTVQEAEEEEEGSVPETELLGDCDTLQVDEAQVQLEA
T6 sequence (Q01973 165-391 limits assumed): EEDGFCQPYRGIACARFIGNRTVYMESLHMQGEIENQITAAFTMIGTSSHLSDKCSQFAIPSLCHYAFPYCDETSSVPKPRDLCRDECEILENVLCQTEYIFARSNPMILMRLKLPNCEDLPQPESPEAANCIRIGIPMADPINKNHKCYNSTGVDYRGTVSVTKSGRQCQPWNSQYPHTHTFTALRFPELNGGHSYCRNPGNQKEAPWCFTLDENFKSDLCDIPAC

Binder	binding result [1]	Kd [2] [nM]	koff [2] [s⁻¹]	kon [2] [M⁻¹ s⁻¹]	binding result (hROR2)	binding result [3]	binding result (Ig)	binding result (Fr + Ki)	binding result (Kr)	binding result (Fr)
B1	no binding (tested: 100 ng/50 µL)	240	0.0592	247000	no binding (tested: 1000 ng/100 µL)	no binding (tested: 100 ng/50 µL)	no binding	no binding	no binding	no binding
B2	no binding (tested: 100 ng/50 µL)	281	0.0162	57500	no binding (tested: 1000 ng/100 µL)	no binding (tested: 100 ng/50 µL)	no binding	no binding	no binding	no binding
B3	no binding (tested: 100 ng/50 µL)	118	0.1	849000	no binding (tested: 1000 ng/100 µL)	no binding (tested: 100 ng/50 µL)	no binding	no binding	no binding	no binding
B4	no binding (tested: 100 ng/50 µL)	121	0.133	1.1e+06	no binding (tested: 1000 ng/100 µL)	no binding (tested: 100 ng/50 µL)	no binding	no binding	no binding	no binding
B5	no binding (tested: 100 ng/50 µL)	41.6	0.00128	30800	no binding (tested: 1000 ng/100 µL)	no binding (tested: 100 ng/50 µL)	no binding	no binding	no binding	no binding
